Patent US5418135

Target: PDGF receptor (cell membrane-bound receptor for native PDGF)

“PDGF A chain monomer, intact, Cys residues pyridylethylated (ligand)” and “A4, Endo Lys-C fragment aa 80-110 of alkylated PDGF A monomer (peptide)” are the same in HALF-MAX INHIBITION (3H-thymidine incorporation induced by PDGF dimer): 100 nM for the first, 100 nM for the second.

Substance “A6, Endo Lys-C fragment aa 12-41 of alkylated PDGF A monomer (peptide)” has an HALF-MAX INHIBITION (3H-thymidine incorporation induced by PDGF dimer) greater than 200 nM.
